According to ChEMBL document CHEMBL1250451, “Mechanistic insights into a Ca2+-dependent family of alpha-mannosidases in a human gut symbiont” (Nat Chem Biol, 2010):
Substitutions are numbered along the chain they refer to. In names and notes the source's numbering stands.

Legend:
Type in all cases: protein assay
[1] = substrate: OC[C@H]1O[C@H](O[C@H]2[C@@H](O)[C@H](O)[C@@H](CO)O[C@@H]2O)[C@@H](O)[C@@H](O)[C@@H]1O; experiment: (§1) Activity of Bacteroides thetaiotaomicron GH92 alpha-mannosidase GH92 alpha-mannosidase 3990 assessed as mannose release after 16 hrs by HPLC
[2] = substrate: O=[N+]([O-])c1ccc(O[C@H]2O[C@H](CO)[C@@H](O)[C@H](O)[C@@H]2O)cc1; experiment: as §1
[3] = substrate: OC[C@H]1O[C@H](O[C@H]2[C@@H](O)[C@H](O)[C@@H](CO)O[C@@H]2O)[C@@H](O)[C@@H](O)[C@@H]1O; experiment: (§2) Ratio of Kcat to Km for Bacteroides thetaiotaomicron GH92 alpha-mannosidase GH92 alpha-mannosidase 3990 assessed as mannose release after 16 hrs by HPLC
[4] = substrate: O=[N+]([O-])c1ccc(O[C@H]2O[C@H](CO)[C@@H](O)[C@H](O)[C@@H]2O)c([N+](=O)[O-])c1; experiment: as §2
[5] = substrate: O=[N+]([O-])c1ccc(O[C@H]2O[C@H](CO)[C@@H](O)[C@H](O)[C@@H]2O)cc1; experiment: as §2
[6] = substrate: OC[C@H]1O[C@H](O[C@H]2[C@@H](O)[C@H](O)[C@@H](CO)O[C@@H]2O)[C@@H](O)[C@@H](O)[C@@H]1O; experiment: (§3) Ratio of Kcat to Km for Bacteroides thetaiotaomicron GH92 alpha-mannosidase 3990 D644A mutant assessed as as mannose release after 16 hrs by HPLC relative to wild type enzyme
[7] = substrate: O=[N+]([O-])c1ccc(O[C@H]2O[C@H](CO)[C@@H](O)[C@H](O)[C@@H]2O)c([N+](=O)[O-])c1; experiment: as §3
[8] = substrate: O=[N+]([O-])c1ccc(O[C@H]2O[C@H](CO)[C@@H](O)[C@H](O)[C@@H]2O)cc1; experiment: as §3
[9] = substrate: OC[C@H]1O[C@H](O[C@H]2[C@@H](O)[C@H](O)[C@@H](CO)O[C@@H]2O)[C@@H](O)[C@@H](O)[C@@H]1O; experiment: (§4) Activity of Bacteroides thetaiotaomicron GH92 alpha-mannosidase 3990 D644A mutant assessed as as mannose release after 16 hrs by HPLC relative to wild type enzyme
[10] = substrate: O=[N+]([O-])c1ccc(O[C@H]2O[C@H](CO)[C@@H](O)[C@H](O)[C@@H]2O)cc1; experiment: as §4
[11] = substrate: OC[C@H]1O[C@H](O[C@H]2[C@@H](O)[C@H](O)[C@@H](CO)O[C@@H]2O)[C@@H](O)[C@@H](O)[C@@H]1O; experiment: (§5) Activity of Bacteroides thetaiotaomicron GH92 alpha-mannosidase 2199 D648A mutant assessed as as mannose release after 16 hrs by HPLC relative to wild type enzyme
[12] = substrate: O=[N+]([O-])c1ccc(O[C@H]2O[C@H](CO)[C@@H](O)[C@H](O)[C@@H]2O)cc1; experiment: as §5
[13] = substrate: OC[C@H]1O[C@H](O[C@H]2[C@@H](O)[C@H](O)[C@@H](CO)O[C@@H]2O)[C@@H](O)[C@@H](O)[C@@H]1O; experiment: (§6) Ratio of Kcat to Km for Bacteroides thetaiotaomicron GH92 alpha-mannosidase 2199 D648A mutant assessed as as mannose release after 16 hrs by HPLC relative to wild type enzyme
[14] = substrate: O=[N+]([O-])c1ccc(O[C@H]2O[C@H](CO)[C@@H](O)[C@H](O)[C@@H]2O)cc1; experiment: as §6
[15] = substrate: OC[C@H]1O[C@H](O[C@H]2[C@@H](O)[C@H](O)[C@@H](CO)O[C@@H]2O)[C@@H](O)[C@@H](O)[C@@H]1O; experiment: (§7) Activity of Bacteroides thetaiotaomicron GH92 alpha-mannosidase 3990 E643A mutant assessed as as mannose release after 16 hrs by HPLC relative to wild type enzyme
[16] = substrate: O=[N+]([O-])c1ccc(O[C@H]2O[C@H](CO)[C@@H](O)[C@H](O)[C@@H]2O)cc1; experiment: as §7
[17] = substrate: OC[C@H]1O[C@H](O[C@H]2[C@@H](O)[C@H](O)[C@@H](CO)O[C@@H]2O)[C@@H](O)[C@@H](O)[C@@H]1O; experiment: (§8) Ratio of Kcat to Km for Bacteroides thetaiotaomicron GH92 alpha-mannosidase 3990 E643A mutant assessed as as mannose release after 16 hrs by HPLC relative to wild type enzyme
[18] = substrate: O=[N+]([O-])c1ccc(O[C@H]2O[C@H](CO)[C@@H](O)[C@H](O)[C@@H]2O)c([N+](=O)[O-])c1; experiment: as §8
[19] = substrate: O=[N+]([O-])c1ccc(O[C@H]2O[C@H](CO)[C@@H](O)[C@H](O)[C@@H]2O)cc1; experiment: as §8
[20] = substrate: OC[C@H]1O[C@H](O[C@H]2[C@@H](O)[C@H](O)[C@@H](CO)O[C@@H]2O)[C@@H](O)[C@@H](O)[C@@H]1O; experiment: (§9) Activity of Bacteroides thetaiotaomicron GH92 alpha-mannosidase 3990 D644N mutant assessed as as mannose release after 16 hrs by HPLC relative to wild type enzyme
[21] = substrate: O=[N+]([O-])c1ccc(O[C@H]2O[C@H](CO)[C@@H](O)[C@H](O)[C@@H]2O)cc1; experiment: as §9
[22] = substrate: OC[C@H]1O[C@H](O[C@H]2[C@@H](O)[C@H](O)[C@@H](CO)O[C@@H]2O)[C@@H](O)[C@@H](O)[C@@H]1O; experiment: (§10) Ratio of Kcat to Km for Bacteroides thetaiotaomicron GH92 alpha-mannosidase 3990 D644N mutant assessed as as mannose release after 16 hrs by HPLC relative to wild type enzyme
[23] = substrate: O=[N+]([O-])c1ccc(O[C@H]2O[C@H](CO)[C@@H](O)[C@H](O)[C@@H]2O)c([N+](=O)[O-])c1; experiment: as §10
[24] = substrate: O=[N+]([O-])c1ccc(O[C@H]2O[C@H](CO)[C@@H](O)[C@H](O)[C@@H]2O)cc1; experiment: as §10
[25] = substrate: OC[C@H]1O[C@H](O[C@H]2[C@@H](O)[C@H](O)[C@@H](CO)O[C@@H]2O)[C@@H](O)[C@@H](O)[C@@H]1O; experiment: (§11) Activity of Bacteroides thetaiotaomicron GH92 alpha-mannosidase 2199 D648N mutant assessed as as mannose release after 16 hrs by HPLC relative to wild type enzyme
[26] = substrate: O=[N+]([O-])c1ccc(O[C@H]2O[C@H](CO)[C@@H](O)[C@H](O)[C@@H]2O)cc1; experiment: as §11
[27] = substrate: OC[C@H]1O[C@H](O[C@H]2[C@@H](O)[C@H](O)[C@@H](CO)O[C@@H]2O)[C@@H](O)[C@@H](O)[C@@H]1O; experiment: (§12) Ratio of Kcat to Km for Bacteroides thetaiotaomicron GH92 alpha-mannosidase 2199 D648N mutant assessed as as mannose release after 16 hrs by HPLC relative to wild type enzyme
[28] = substrate: O=[N+]([O-])c1ccc(O[C@H]2O[C@H](CO)[C@@H](O)[C@H](O)[C@@H]2O)cc1; experiment: as §12

B1: Alpha-1,2-mannosidase (BT_3990) (Bacteroides thetaiotaomicron), Q8A0N1 (protein)
chain: MKRLLLIACILNCTLLSQAKDWTQYVNPLMGSQSTFELSTGNTYPAIARPWGMNFWTPQTGKMGDGWQYTYTANKIRGFKQTHQPSPWINDYGQFSIMPIVGQPVFDEEKRASWFAHKGEVATPYYYKVYLAEHDIVTEMTPTERAVLFRFTFPENDHSYVVVDAFDKGSYIKIIPEENKIIGYTTRNSGGVPENFKNYFIIEFDKPFTYKATVENGNLQENVAEQTTDHAGAIIGFKTRKGEQVNARIASSFISFEQAAANMNELGKDNIEQLAQKGKDAWNQVLGKIEVEGGNLDQYRTFYSCLYRSLLFPRKFYELDANGQPIHYSPYNGQVLPGYMFTDTGFWDTFRCLFPLLNLMYPSVNKEMQEGLINTYLESGFFPEWASPGHRGCMVGNNSASILVDAYMKGVKVDDIKTLYEGLIHGTENVHPEVSSTGRLGYEYYNKLGYVPYDVKINENAARTLEYAYDDWCIYRLAKELKRPKKEISLFAKRAMNYKNLFDKESKLMRGRNEDGTFQSPFSPLKWGDAFTEGNSWHYTWSVFHDPQGLIDLMGGKEMFVTMMDSVFAVPPIFDDSYYGQVIHEIREMTVMNMGNYAHGNQPIQHMIYLYDYAGQPWKAQYWLRQVMDRMYTPGPDGYCGDEDNGQTSAWYVFSALGFYPVCPGTDEYVMGTPLFKKATLHFENGNSLVIDAPNNSTENFYIDSMSFNGADHTKNYLRHEDLFKGGTIKVDMSNRPNLNRGTKEEDMPYSFSKE
Km [1]: 760 µM | kcat [1]: 86.7 s⁻¹ | Km [2]: 4200 µM | kcat [2]: 0.0933 s⁻¹ | kcat/Km [3]: 113000 M⁻¹ s⁻¹ | kcat/Km [4]: 16.7 M⁻¹ s⁻¹ | kcat/Km [5]: 21.7 M⁻¹ s⁻¹

B2: Alpha-1,2-mannosidase (BT_3990) (Bacteroides thetaiotaomicron), Q8A0N1 D644A (protein)
chain: B1 chain with D644A
kcat/Km [6]: 1.27 M⁻¹ s⁻¹ | kcat/Km [7]: 0.0167 M⁻¹ s⁻¹ | kcat/Km [8]: Not Active | Km [9]: 620 µM | kcat [9]: 0.000783 s⁻¹ | Km [10]: Not Active | kcat [10]: Not Active

B3: Alpha-1,2-mannosidase (BT_2199) (Bacteroides thetaiotaomicron), Q8A5N9 D648A (protein)
chain: MVTRLFFLSICFPFLLTSCQQSKKTVEFVDYVNPLMGTESTFAFSHGNTYPAVAVPWGMNFWSPQTGENGSGWMYTYTDSLMRGFRQTHQPSPWINDYGTFSIMPLAGELKMSHKERLVPFSHQQEKATPYNYSVTFNNGLQTSLSATSRGAVFEVSFPEKEDQYVVVDAYNGGSSITIEPEKRLVKGATRYNNGGVPDNFANYFMMEFSHPVIEYGTYNGDTLLHHQTDVAADYTCAYLKFDVPAGEKLTIRTASSFISPEQAAINFNREVADADVQLISGKAREQWNNYLGRVEAEGGTDEQLRTFYSCLYRTLLFPREFYEFDSQGNPVYYSPYDGNVHDGYMYTDNGFWDTFRAVHPLFTLLYPEVSERVTQSIINAYNESGFMPEWASPGHRGCMIGNNSVSLLVDAWMKGIQTVDAEKALEAMIHQTQARHAEIASVGRDGFEYYDKLGYVPYPEVPEATAKTLEYAYADWCIARFAESLGKQDIADQYYQKAPNYRNLYYPEHGFMWTKDAKGNWRDRFDATEWGGPFTEGSSWHWTWSVFHDPEGLSELMGGHEPMIARLDSMFVAPNTYNYGTYGFVIHEIAEMVALNMGQYAHGNQPVQHAIYLYDYIGQPWKTQYHLRNVMDKLYNSGSKGYCGDEANGQTSAWYVFSAMGFYPVCPGMPEYAIGSPLFKKVTLHLPEGKNFVVSAADNAADRPYIRKALLNGQEFTRNYLTHDELKQGGELNLSMDSVPNQQRGTQPADFPYSYSK
Km [11]: 2720 µM | kcat [11]: 0.000433 s⁻¹ | Km [12]: Not Active | kcat [12]: Not Active | kcat/Km [13]: 0.167 M⁻¹ s⁻¹ | kcat/Km [14]: Not Active

B4: Alpha-1,2-mannosidase (BT_3990) (Bacteroides thetaiotaomicron), Q8A0N1 E643A (protein)
chain: B1 chain with E643A
Km [15]: Not Active | kcat [15]: Not Active | Km [16]: Not Active | kcat [16]: Not Active | kcat/Km [17]: 13.2 M⁻¹ s⁻¹ | kcat/Km [18]: 0.25 M⁻¹ s⁻¹ | kcat/Km [19]: Not Active

B5: Alpha-1,2-mannosidase (BT_3990) (Bacteroides thetaiotaomicron), Q8A0N1 D644N (protein)
chain: B1 chain with D644N
Km [20]: 720 µM | kcat [20]: 0.000383 s⁻¹ | Km [21]: Not Active | kcat [21]: Not Active | kcat/Km [22]: 0.533 M⁻¹ s⁻¹ | kcat/Km [23]: 0.567 M⁻¹ s⁻¹ | kcat/Km [24]: Not Active

B6: Alpha-1,2-mannosidase (BT_2199) (Bacteroides thetaiotaomicron), Q8A5N9 D648N (protein)
chain: B3 chain with A648N
Km [25]: 1270 µM | kcat [25]: 0.000483 s⁻¹ | Km [26]: Not Active | kcat [26]: Not Active | kcat/Km [27]: 0.383 M⁻¹ s⁻¹ | kcat/Km [28]: Not Active
